# Experimental data: patent publication US8283445B2, “Extracellular-signal-regulated-kinase (ERK) heteropolyligand polypeptide” (Intrexon Corporation, priority 2006, dated 2012)
# B1: SEQ ID NO:1: ERK heteropolyligand A-S1-B-S2-C-S3-D-S4-E-S5-F of SEQ ID NOS:91, 97, 28, 29, 30, 31, Xaa alanine, with spacers (protein)
# chain: MPKKKPTPIQLNPAAKGRKPRDLELPAAAATGPLAPGPFGAGAYSPTAPTYSPTAPKKKGGGGAPRAPGGRRAGAGRRPRAPAKLSFFFPS
# modifications: Synthetic polyligand
# B2: SEQ ID NO:5: ERK heteropolyligand of SEQ ID NOS:32, 98, 33, 34, 35, 100, 36, 37, 107, Xaa alanine, with spacers (protein)
# chain: PPLMAPPFYPQKGRKPRDLELPLAAAAKQAEAVTAPRGAGAKNIVTPRAPPPSQGKGGGGTLSPIAPRAPAKLSFQFPSSAGPGAEFLKPIESSILAQRRVRKLPSTAGAGKRELVEPLAPSGEAPNQALLRAAGGYSPTAPTYSPTAPKKKGGAATPTAAHSGSHLFGFP
# modifications: Synthetic polyligand
# B3: PLA-localized SEQ ID NO:1: SEQ ID NO:1 targeted to the plasma membrane (protein)
# chain: B1 chain
# modifications: left off: small tags and cut ends
# B4: NLS: SEQ ID NO:1 fused to a nuclear localization signal and c-Myc epitope tag (protein)
# chain: B1 chain
# modifications: left off: small tags and cut ends
# B5: NXP: SEQ ID NO:1 fused to a nuclear-exclusion localization signal and c-Myc epitope tag (protein)
# chain: B1 chain
# modifications: left off: small tags and cut ends
# How the values were obtained:
# NIH3T3 cells [1] = test: G418-resistant colony formation (cell proliferation) in NIH3T3 cells; format: cell-based, mouse
# MEK = conditions: cited from earlier work
# NIH3T3 cells [2] = test: Transformed foci formation (cell transformation) in NIH3T3 cells; format: cell-based, mouse; conditions: for Inhibition of cell transformation rates: H-RasV12 transformed cells; for Inhibition of cell transformation (foci formation): transformation by H-ras V12 or v-Src, constructs 1 μg each, FIG. 20
# Procedure: Transformed foci formation was assayed in NIH3T3 cells transfected with H-ras V12 or v-Src (0.25 ng) plus constructs (1 μg each).
# Additionally, experiments where inhibition of ERK signaling using ERK ligands of the invention was compared to siRNAs and a small molecule inhibitor. The commercial siRNAs were designed for target specificity to either the ERK1 (sc-29307) or ERK2 (sc-35335) isoforms (Santa Cruz Biotechnology, Inc.). The small molecule inhibitor, UO126 (1,4-diamino-2,3-dicyano-1,4-bis(2-aminophenylthio) butadiene), inhibits ERK signaling through its upstream effector, MEK, and ERK is the only known substrate for MEK. Assays performed were phenotypic assays. The effects of inhibiting ERK activity were measured by looking at functional properties of the cells associated with the MAPK signaling pathway, such as, cell proliferation and transformation. The MAPK signaling cascade in these experiments is initiated by transfection of the cells with a vector containing a constitutively active proto-oncogene, either H-RasV12 or v-Src, which eventually causes the cells to acquire enhanced growth rate (colony formation) and cell transformation rate (foci formation). Inhibition of ERK activity in this cascade will result in reduced rates of proliferation or transformation as measured by numbers of G418-resitant colonies or foci.
# Next, the effect of ERK inhibition on cell transformation was investigated using two means of initiating signaling cascades that lead to this biological property (FIG. 20). The first method is the constitutively active Ras mutant used herein above. The second is a constitutively active nonreceptor tyrosine kinase v-Src mutant (pp 60v-src) that also leads to cell transformation, potentially by multiple signaling pathways including the Ras-Raf-MEK-ERK pathway. […] However, when transformation was initiated with v-Src, there was a difference in the inhibition specificity arising from use of SEQ ID NO:1 localized to the ER and PLA. […] That is, ER-localized SEQ ID NO:1 has a significant effect on transformation induced by H-RasV12 but little to no effect when transformation is induced by v-Src.
# ERK = test: Localized inhibition of ERK-mediated myelin basic protein phosphorylation in Cos7 cells; format: cell-based
# Excerpt: A constitutively-active form of the RasV12 protein, a known activator of MAPK signaling pathways, was used to activate ERK kinase in defined regions of Cos7 cells. Several fusion proteins as described by Matallanas et al. Mol Cell Biol. 2006 January; 26(1):100-116 (hereby incorporated by reference), were used to activate ERK kinase in specific subcellular compartments. The constitutively-active RasV12 protein promoted cell-wide activation of ERK. The Lck-RasV 12 fusion protein activated ERK-protein associated with lipid rafts in or near the plasma membrane. […] Lane 1: control. Lane 2: ERK activity in cells expressing active Lck-RasV12 fusion protein. Lane 3: ERK activity in cells co-expressing active Lck-RasV12 fusion protein, and ERK decoy protein (ER localization signal, a c-Myc epitope tag, and the ERK polyligand of SEQ ID NO:1). Lane 4: ERK activity in cells co-expressing active Lck-RasV12 fusion protein, and CAT fragment-containing ER localization control protein. Lane 5: ERK activity in cells expressing active M1-RasV12 fusion protein. Lane 6: ERK activity in cells co-expressing active M1-RasV12 fusion protein, and ERK decoy protein. Lane 7: ERK activity in cells co-expressing active M1-RasV12 fusion protein, and CAT fragment-containing ER localization control protein. […]
# The localized ERK ligands were detected by immunostaining for the c-myc epitope tag.
# [3] = pancellular polyligand, vector 1 μg, colonies counted after 15 days, FIG. 18
# [4] = SEQ ID NO:1 fused to localization signals, constructs 1 μg each, 15 days, FIG. 19
Molecule,Inhibition of cell transformation rates (NIH3T3 cells [2]),Inhibition of cell transformation (foci formation) (NIH3T3 cells [2]),Inhibition of cell proliferation (G418-resistant colony formation) (NIH3T3 cells [1]; [3]),Inhibition of cell proliferation (G418-resistant colony formation) (NIH3T3 cells [1]; [4]),also measured
"N#CC(=C(N)Sc1ccccc1N)C(C#N)=C(N)Sc1ccccc1N [UO126, 1,4-diamino-2,3-dicyano-1,4-bis(2-aminophenylthio) butadiene, reference compound]",–,–,–,–,"Inhibition of colony formation (NIH3T3 cells [1]; UO126 1 μM, colonies counted after 15 days, FIG. 18): very effective; Potency for MEK (MEK): ~70 nM"
B1,~50%,inhibited cell transformation,partial inhibition,–,"ERK activity in the endoplasmic reticulum reduced (MBP phosphorylation) (ERK; Cos7 cells with ER-active ERK (M1-RasV12), SEQ ID NO:1 co-expressed as fusion with ER localization signal and c-Myc tag): approximately 60%; Inhibition of ERK activity as measured by phosphorylation of myelin basic protein (MBP) (ERK; ERK activated at plasma membrane, ER or cell wide by localized Ras overexpression): location-selective inhibition of ERK activity at the endoplasmic reticulum"
B2,~50%,inhibited cell transformation,partial inhibition,–,–
B3,~50%,–,–,greatest degree of inhibition,Decrease in transformation (NIH3T3 cells [2]; transformation initiated with v-Src): ~60%
B4,–,–,–,slight inhibition,–
B5,–,–,–,slight inhibition,–
